# Patent publication US20210139548A1 (published 2021)
# *1 amine or outer side, *2 acyl side, *3 side chain or, on linkers, in order; H or OH if unused. Side-chain parts run from the residue outwards. The star is where a group is joined. C18 diacid = O=C(O)CCCCCCCCCCCCCCCCC(=O)*; γGlu = O=C(O)[C@H](CCC(=O)[*:2])N[*:1]; Isovaleryl = CC(C)CC(=O)*; AEEA = NCCOCCOCC(=O)O
# B1: Compound 189 (peptide)
# peptide: Isovaleryl-APEK([AEEA-AEEA-γGlu-C18 diacid])PEEDASEAELQRYYVSLRHYYNWLTRQRY-NH2
# SMILES: CC(C)CC(=O)N[C@@H](C)C(=O)N1CCC[C@H]1C(=O)N[C@@H](CCC(=O)O)C(=O)N[C@@H](CCCCNC(=O)COCCOCCNC(=O)COCCOCCNC(=O)CC[C@H](NC(=O)CCCCCCCCCCCCCCCCC(=O)O)C(=O)O)C(=O)N1CCC[C@H]1C(=O)N[C@@H](CCC(=O)O)C(=O)N[C@@H](CCC(=O)O)C(=O)N[C@@H](CC(=O)O)C(=O)N[C@@H](C)C(=O)N[C@@H](CO)C(=O)N[C@@H](CCC(=O)O)C(=O)N[C@@H](C)C(=O)N[C@@H](CCC(=O)O)C(=O)N[C@@H](CC(C)C)C(=O)N[C@@H](CCC(N)=O)C(=O)N[C@@H](CCCNC(=N)N)C(=O)N[C@@H](Cc1ccc(O)cc1)C(=O)N[C@@H](Cc1ccc(O)cc1)C(=O)N[C@H](C(=O)N[C@@H](CO)C(=O)N[C@@H](CC(C)C)C(=O)N[C@@H](CCCNC(=N)N)C(=O)N[C@@H](Cc1c[nH]cn1)C(=O)N[C@@H](Cc1ccc(O)cc1)C(=O)N[C@@H](Cc1ccc(O)cc1)C(=O)N[C@@H](CC(N)=O)C(=O)N[C@@H](Cc1c[nH]c2ccccc12)C(=O)N[C@@H](CC(C)C)C(=O)N[C@H](C(=O)N[C@@H](CCCNC(=N)N)C(=O)N[C@@H](CCC(N)=O)C(=O)N[C@@H](CCCNC(=N)N)C(=O)N[C@@H](Cc1ccc(O)cc1)C(N)=O)[C@@H](C)O)C(C)C
# B2: Compound 192 (peptide)
# peptide: Isovaleryl-APEK([AEEA-AEEA-γGlu-C18 diacid])PEEDAAPAELQRYYVSLRHYYNWLTRQRY-NH2
# SMILES: CC(C)CC(=O)N[C@@H](C)C(=O)N1CCC[C@H]1C(=O)N[C@@H](CCC(=O)O)C(=O)N[C@@H](CCCCNC(=O)COCCOCCNC(=O)COCCOCCNC(=O)CC[C@H](NC(=O)CCCCCCCCCCCCCCCCC(=O)O)C(=O)O)C(=O)N1CCC[C@H]1C(=O)N[C@@H](CCC(=O)O)C(=O)N[C@@H](CCC(=O)O)C(=O)N[C@@H](CC(=O)O)C(=O)N[C@@H](C)C(=O)N[C@@H](C)C(=O)N1CCC[C@H]1C(=O)N[C@@H](C)C(=O)N[C@@H](CCC(=O)O)C(=O)N[C@@H](CC(C)C)C(=O)N[C@@H](CCC(N)=O)C(=O)N[C@@H](CCCNC(=N)N)C(=O)N[C@@H](Cc1ccc(O)cc1)C(=O)N[C@@H](Cc1ccc(O)cc1)C(=O)N[C@H](C(=O)N[C@@H](CO)C(=O)N[C@@H](CC(C)C)C(=O)N[C@@H](CCCNC(=N)N)C(=O)N[C@@H](Cc1c[nH]cn1)C(=O)N[C@@H](Cc1ccc(O)cc1)C(=O)N[C@@H](Cc1ccc(O)cc1)C(=O)N[C@@H](CC(N)=O)C(=O)N[C@@H](Cc1c[nH]c2ccccc12)C(=O)N[C@@H](CC(C)C)C(=O)N[C@H](C(=O)N[C@@H](CCCNC(=N)N)C(=O)N[C@@H](CCC(N)=O)C(=O)N[C@@H](CCCNC(=N)N)C(=O)N[C@@H](Cc1ccc(O)cc1)C(N)=O)[C@@H](C)O)C(C)C
# B3: Compound 193 (peptide)
# peptide: Isovaleryl-APEK([AEEA-AEEA-γGlu-C18 diacid])PEEDASEEEIQRYYVSLRHYYNWLTRQRY-NH2
# SMILES: CC[C@H](C)[C@H](NC(=O)[C@H](CCC(=O)O)NC(=O)[C@H](CCC(=O)O)NC(=O)[C@H](CCC(=O)O)NC(=O)[C@H](CO)NC(=O)[C@H](C)NC(=O)[C@H](CC(=O)O)NC(=O)[C@H](CCC(=O)O)NC(=O)[C@H](CCC(=O)O)NC(=O)[C@@H]1CCCN1C(=O)[C@H](CCCCNC(=O)COCCOCCNC(=O)COCCOCCNC(=O)CC[C@H](NC(=O)CCCCCCCCCCCCCCCCC(=O)O)C(=O)O)NC(=O)[C@H](CCC(=O)O)NC(=O)[C@@H]1CCCN1C(=O)[C@H](C)NC(=O)CC(C)C)C(=O)N[C@@H](CCC(N)=O)C(=O)N[C@@H](CCCNC(=N)N)C(=O)N[C@@H](Cc1ccc(O)cc1)C(=O)N[C@@H](Cc1ccc(O)cc1)C(=O)N[C@H](C(=O)N[C@@H](CO)C(=O)N[C@@H](CC(C)C)C(=O)N[C@@H](CCCNC(=N)N)C(=O)N[C@@H](Cc1c[nH]cn1)C(=O)N[C@@H](Cc1ccc(O)cc1)C(=O)N[C@@H](Cc1ccc(O)cc1)C(=O)N[C@@H](CC(N)=O)C(=O)N[C@@H](Cc1c[nH]c2ccccc12)C(=O)N[C@@H](CC(C)C)C(=O)N[C@H](C(=O)N[C@@H](CCCNC(=N)N)C(=O)N[C@@H](CCC(N)=O)C(=O)N[C@@H](CCCNC(=N)N)C(=O)N[C@@H](Cc1ccc(O)cc1)C(N)=O)[C@@H](C)O)C(C)C
# B4: Compound 195 (peptide)
# peptide: Isovaleryl-APEK([AEEA-AEEA-γGlu-C18 diacid])PEEDASPEALQRYYVELRHYYNWLTRQRY-NH2
# SMILES: CC(C)CC(=O)N[C@@H](C)C(=O)N1CCC[C@H]1C(=O)N[C@@H](CCC(=O)O)C(=O)N[C@@H](CCCCNC(=O)COCCOCCNC(=O)COCCOCCNC(=O)CC[C@H](NC(=O)CCCCCCCCCCCCCCCCC(=O)O)C(=O)O)C(=O)N1CCC[C@H]1C(=O)N[C@@H](CCC(=O)O)C(=O)N[C@@H](CCC(=O)O)C(=O)N[C@@H](CC(=O)O)C(=O)N[C@@H](C)C(=O)N[C@@H](CO)C(=O)N1CCC[C@H]1C(=O)N[C@@H](CCC(=O)O)C(=O)N[C@@H](C)C(=O)N[C@@H](CC(C)C)C(=O)N[C@@H](CCC(N)=O)C(=O)N[C@@H](CCCNC(=N)N)C(=O)N[C@@H](Cc1ccc(O)cc1)C(=O)N[C@@H](Cc1ccc(O)cc1)C(=O)N[C@H](C(=O)N[C@@H](CCC(=O)O)C(=O)N[C@@H](CC(C)C)C(=O)N[C@@H](CCCNC(=N)N)C(=O)N[C@@H](Cc1c[nH]cn1)C(=O)N[C@@H](Cc1ccc(O)cc1)C(=O)N[C@@H](Cc1ccc(O)cc1)C(=O)N[C@@H](CC(N)=O)C(=O)N[C@@H](Cc1c[nH]c2ccccc12)C(=O)N[C@@H](CC(C)C)C(=O)N[C@H](C(=O)N[C@@H](CCCNC(=N)N)C(=O)N[C@@H](CCC(N)=O)C(=O)N[C@@H](CCCNC(=N)N)C(=O)N[C@@H](Cc1ccc(O)cc1)C(N)=O)[C@@H](C)O)C(C)C
# B5: Compound 191 (peptide)
# peptide: Isovaleryl-APEK([AEEA-AEEA-γGlu-C18 diacid])PEEDASPEELQRYYISLRHYYNWLTRQRY-NH2
# SMILES: CC[C@H](C)[C@H](NC(=O)[C@H](Cc1ccc(O)cc1)NC(=O)[C@H](Cc1ccc(O)cc1)NC(=O)[C@H](CCCNC(=N)N)NC(=O)[C@H](CCC(N)=O)NC(=O)[C@H](CC(C)C)NC(=O)[C@H](CCC(=O)O)NC(=O)[C@H](CCC(=O)O)NC(=O)[C@@H]1CCCN1C(=O)[C@H](CO)NC(=O)[C@H](C)NC(=O)[C@H](CC(=O)O)NC(=O)[C@H](CCC(=O)O)NC(=O)[C@H](CCC(=O)O)NC(=O)[C@@H]1CCCN1C(=O)[C@H](CCCCNC(=O)COCCOCCNC(=O)COCCOCCNC(=O)CC[C@H](NC(=O)CCCCCCCCCCCCCCCCC(=O)O)C(=O)O)NC(=O)[C@H](CCC(=O)O)NC(=O)[C@@H]1CCCN1C(=O)[C@H](C)NC(=O)CC(C)C)C(=O)N[C@@H](CO)C(=O)N[C@@H](CC(C)C)C(=O)N[C@@H](CCCNC(=N)N)C(=O)N[C@@H](Cc1c[nH]cn1)C(=O)N[C@@H](Cc1ccc(O)cc1)C(=O)N[C@@H](Cc1ccc(O)cc1)C(=O)N[C@@H](CC(N)=O)C(=O)N[C@@H](Cc1c[nH]c2ccccc12)C(=O)N[C@@H](CC(C)C)C(=O)N[C@H](C(=O)N[C@@H](CCCNC(=N)N)C(=O)N[C@@H](CCC(N)=O)C(=O)N[C@@H](CCCNC(=N)N)C(=O)N[C@@H](Cc1ccc(O)cc1)C(N)=O)[C@@H](C)O
# Target: T1, human neuropeptide Y2 receptor (human, UniProt P49146 1-381)
# T1 construct: whole, on cells; also called hNPY2 receptor; hNPY2-R
# T1 sequence (looked up): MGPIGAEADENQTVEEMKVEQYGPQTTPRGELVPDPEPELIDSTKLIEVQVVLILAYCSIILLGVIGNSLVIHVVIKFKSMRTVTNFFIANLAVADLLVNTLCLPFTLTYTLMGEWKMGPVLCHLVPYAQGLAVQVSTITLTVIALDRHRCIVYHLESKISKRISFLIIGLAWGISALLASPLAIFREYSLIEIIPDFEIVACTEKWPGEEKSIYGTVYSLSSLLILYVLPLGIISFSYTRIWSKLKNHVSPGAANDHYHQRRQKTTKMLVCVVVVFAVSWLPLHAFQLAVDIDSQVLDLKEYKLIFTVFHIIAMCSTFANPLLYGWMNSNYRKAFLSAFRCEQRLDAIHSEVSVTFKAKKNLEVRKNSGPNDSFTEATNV
# Assay: radioligand competition (125I-PYY(1-36)), hNPY2R membranes
# In short: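 Commercial human Y2 receptor membranes (0.5 μg protein/well) were incubated with peptide for 2 h at room temperature in 50 mM HEPES, 5 mM MgCl₂, 1 mM CaCl₂, pH 7.4, with 0.2% ovalbumin. Bound radioligand was separated on PEI-soaked GF/C filters and counted by scintillation, and IC₅₀ came from nonlinear sigmoidal regression.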
row,Binder,Ki [nM]
1,B1,2.08
2,B2,1.65
3,B3,3.81
4,B4,0.75
5,B5,1.7
